Results taken from patent US20180177842A1 (CANIMGUIDE THERAPEUTICS, published 2018).

B1: AKLDTFFVKLSLFTER (SEQ ID NO: 268) (peptide)
peptide: AKLDTFFVKLSLFTER
B2: DKLDTFFVKLSLFTER (SEQ ID NO: 269) (peptide)
peptide: DKLDTFFVKLSLFTER
B3: EKLDTFFVKLSLFTER (SEQ ID NO: 270) (peptide)
peptide: EKLDTFFVKLSLFTER
B4: FKLDTFFVKLSLFTER (SEQ ID NO: 465) (peptide)
peptide: FKLDTFFVKLSLFTER
B5: GKLDTFFVKLSLFTER (SEQ ID NO: 271) (peptide)
peptide: GKLDTFFVKLSLFTER
B6: HKLDTFFVKLSLFTER (SEQ ID NO: 272) (peptide)
peptide: HKLDTFFVKLSLFTER
B7: IKLDTFFVKLSLFTER (SEQ ID NO: 273) (peptide)
peptide: IKLDTFFVKLSLFTER
B8: KALDTFFVKLSLFTER (SEQ ID NO: 485) (peptide)
peptide: KALDTFFVKLSLFTER
B9: KCLDTFFVKLSLFTER (SEQ ID NO: 499) (peptide)
peptide: KCLDTFFVKLSLFTER
B10: KDLDTFFVKLSLFTER (SEQ ID NO: 461) (peptide)
peptide: KDLDTFFVKLSLFTER
B11: KELDTFFVKLSLFTER (SEQ ID NO: 441) (peptide)
peptide: KELDTFFVKLSLFTER
B12: KFLDTFFVKLSLFTER (SEQ ID NO: 421) (peptide)
peptide: KFLDTFFVKLSLFTER
B13: KGLDTFFVKLSLFTER (SEQ ID NO: 412) (peptide)
peptide: KGLDTFFVKLSLFTER
B14: KHLDTFFVKLSLFTER (SEQ ID NO: 418) (peptide)
peptide: KHLDTFFVKLSLFTER
B15: KILDTFFVKLSLFTER (SEQ ID NO: 467) (peptide)
peptide: KILDTFFVKLSLFTER
B16: KKADTFFVKLSLFTER (SEQ ID NO: 282) (peptide)
peptide: KKADTFFVKLSLFTER
B17: KKCDTFFVKLSLFTER (SEQ ID NO: 283) (peptide)
peptide: KKCDTFFVKLSLFTER
B18: KKDDTFFVKLSLFTER (SEQ ID NO: 284) (peptide)
peptide: KKDDTFFVKLSLFTER
B19: KKEDTFFVKLSLFTER (SEQ ID NO: 285) (peptide)
peptide: KKEDTFFVKLSLFTER
B20: KKFDTFFVKLSLFTER (SEQ ID NO: 286) (peptide)
peptide: KKFDTFFVKLSLFTER
B21: KKGDTFFVKLSLFTER (SEQ ID NO: 287) (peptide)
peptide: KKGDTFFVKLSLFTER
B22: KKHDTFFVKLSLFTER (SEQ ID NO: 288) (peptide)
peptide: KKHDTFFVKLSLFTER
B23: KKIDTFFVKLSLFTER (SEQ ID NO: 289) (peptide)
peptide: KKIDTFFVKLSLFTER
B24: KKKDTFFVKLSLFTER (SEQ ID NO: 290) (peptide)
peptide: KKKDTFFVKLSLFTER
B25: KKLATFFVKLSLFTER (SEQ ID NO: 298) (peptide)
peptide: KKLATFFVKLSLFTER
B26: KKLCTFFVKLSLFTER (SEQ ID NO: 449) (peptide)
peptide: KKLCTFFVKLSLFTER
B27: KKLDAFFVKLSLFTER (SEQ ID NO: 447) (peptide)
peptide: KKLDAFFVKLSLFTER
B28: KKLDCFFVKLSLFTER (SEQ ID NO: 304) (peptide)
peptide: KKLDCFFVKLSLFTER
B29: KKLDDFFVKLSLFTER (SEQ ID NO: 500) (peptide)
peptide: KKLDDFFVKLSLFTER
B30: KKLDEFFVKLSLFTER (SEQ ID NO: 456) (peptide)
peptide: KKLDEFFVKLSLFTER
B31: KKLDFFFVKLSLFTER (SEQ ID NO: 504) (peptide)
peptide: KKLDFFFVKLSLFTER
B32: KKLDGFFVKLSLFTER (SEQ ID NO: 95) (peptide)
peptide: KKLDGFFVKLSLFTER
B33: KKLDHFFVKLSLFTER (SEQ ID NO: 420) (peptide)
peptide: KKLDHFFVKLSLFTER
B34: KKLDIFFVKLSLFTER (SEQ ID NO: 501) (peptide)
peptide: KKLDIFFVKLSLFTER
B35: KKLDKFFVKLSLFTER (SEQ ID NO: 530) (peptide)
peptide: KKLDKFFVKLSLFTER
B36: KKLDLFFVKLSLFTER (SEQ ID NO: 484) (peptide)
peptide: KKLDLFFVKLSLFTER
B37: KKLDMFFVKLSLFTER (SEQ ID NO: 305) (peptide)
peptide: KKLDMFFVKLSLFTER
B38: KKLDNFFVKLSLFTER (SEQ ID NO: 306) (peptide)
peptide: KKLDNFFVKLSLFTER
B39: KKLDPFFVKLSLFTER (SEQ ID NO: 307) (peptide)
peptide: KKLDPFFVKLSLFTER
B40: KKLDQFFVKLSLFTER (SEQ ID NO: 308) (peptide)
peptide: KKLDQFFVKLSLFTER
B41: KKLDRFFVKLSLFTER (SEQ ID NO: 309) (peptide)
peptide: KKLDRFFVKLSLFTER
B42: KKLDSFFVKLSLFTER (SEQ ID NO: 310) (peptide)
peptide: KKLDSFFVKLSLFTER
B43: KKLDTAFVKLSLFTER (SEQ ID NO: 313) (peptide)
peptide: KKLDTAFVKLSLFTER
B44: KKLDTCFVKLSLFTER (SEQ ID NO: 462) (peptide)
peptide: KKLDTCFVKLSLFTER
B45: KKLDTFAVKLSLFTER (SEQ ID NO: 404) (peptide)
peptide: KKLDTFAVKLSLFTER
B46: KKLDTFCVKLSLFTER (SEQ ID NO: 409) (peptide)
peptide: KKLDTFCVKLSLFTER
B47: KKLDTFDVKLSLFTER (SEQ ID NO: 492) (peptide)
peptide: KKLDTFDVKLSLFTER
B48: KKLDTFEVKLSLFTER (SEQ ID NO: 424) (peptide)
peptide: KKLDTFEVKLSLFTER
B49: KKLDTFFAKLSLFTER (SEQ ID NO: 495) (peptide)
peptide: KKLDTFFAKLSLFTER
B50: KKLDTFFCKLSLFTER (SEQ ID NO: 519) (peptide)
peptide: KKLDTFFCKLSLFTER
B51: KKLDTFFFKLSLFTER (SEQ ID NO: 326) (peptide)
peptide: KKLDTFFFKLSLFTER
B52: KKLDTFFGKLSLFTER (SEQ ID NO: 327) (peptide)
peptide: KKLDTFFGKLSLFTER
B53: KKLDTFFIKLSLFTER (SEQ ID NO: 416) (peptide)
peptide: KKLDTFFIKLSLFTER
B54: KKLDTFFLKLSLFTER (SEQ ID NO: 328) (peptide)
peptide: KKLDTFFLKLSLFTER
B55: KKLDTFFPKLSLFTER (SEQ ID NO: 329) (peptide)
peptide: KKLDTFFPKLSLFTER
notes: also called 32251
B56: KKLDTFFQKLSLFTER (SEQ ID NO: 513) (peptide)
peptide: KKLDTFFQKLSLFTER
B57: KKLDTFFRKLSLFTER (SEQ ID NO: 330) (peptide)
peptide: KKLDTFFRKLSLFTER
B58: KKLDTFFTKLSLFTER (SEQ ID NO: 496) (peptide)
peptide: KKLDTFFTKLSLFTER
B59: KKLDTFFVELSLFTER (SEQ ID NO: 527) (peptide)
peptide: KKLDTFFVELSLFTER
B60: KKLDTFFVHLSLFTER (SEQ ID NO: 488) (peptide)
peptide: KKLDTFFVHLSLFTER
B61: KKLDTFFVKASLFTER (SEQ ID NO: 332) (peptide)
peptide: KKLDTFFVKASLFTER
B62: KKLDTFFVKCSLFTER (SEQ ID NO: 508) (peptide)
peptide: KKLDTFFVKCSLFTER
B63: KKLDTFFVKFSLFTER (SEQ ID NO: 333) (peptide)
peptide: KKLDTFFVKFSLFTER
B64: KKLDTFFVKGSLFTER (SEQ ID NO: 334) (peptide)
peptide: KKLDTFFVKGSLFTER
B65: KKLDTFFVKHSLFTER (SEQ ID NO: 502) (peptide)
peptide: KKLDTFFVKHSLFTER
B66: KKLDTFFVKISLFTER (SEQ ID NO: 335) (peptide)
peptide: KKLDTFFVKISLFTER
B67: KKLDTFFVKKSLFTER (SEQ ID NO: 506) (peptide)
peptide: KKLDTFFVKKSLFTER
B68: KKLDTFFVKLALFTER (SEQ ID NO: 477) (peptide)
peptide: KKLDTFFVKLALFTER
B69: KKLDTFFVKLCLFTER (SEQ ID NO: 457) (peptide)
peptide: KKLDTFFVKLCLFTER
B70: KKLDTFFVKLDLFTER (SEQ ID NO: 474) (peptide)
peptide: KKLDTFFVKLDLFTER
B71: KKLDTFFVKLELFTER (SEQ ID NO: 532) (peptide)
peptide: KKLDTFFVKLELFTER

Target: T1, P3028 (VFDEFKPLVEEPQNLIK, SEQ ID NO: 185), His-tagged (human)
T1 construct: Synthetic fragment of human serum albumin (positions 397-413); used in solution as His-tagged peptide PGE73; also called PGE73; not shown: His-tag
T1 peptide: VFDEFKPLVEEPQNLIK
Assay: PEPSCAN ELISA; peptide on chip, His-P3028 added;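 also: peroxidase color development with ABTS and H2O2 substrate, OD405 imaged by CCD camera with image processing and taken as raw values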

Binder | RAMPO Score [rampo units]
B1 | 466
B2 | 373
B3 | 396
B4 | 332
B5 | 367
B6 | 428
B7 | 483
B8 | 309
B9 | 295
B10 | 335
B11 | 349
B12 | 390
B13 | 405
B14 | 394
B15 | 331
B16 | 427
B17 | 432
B18 | 492
B19 | 528
B20 | 393
B21 | 563
B22 | 477
B23 | 454
B24 | 386

Binder | RAMPO Score [rampo units]
B25 | 494
B26 | 344
B27 | 346
B28 | 449
B29 | 295
B30 | 341
B31 | 290
B32 | 386
B33 | 391
B34 | 293
B35 | 237
B36 | 311
B37 | 475
B38 | 436
B39 | 427
B40 | 535
B41 | 430
B42 | 458
B43 | 575
B44 | 335
B45 | 426
B46 | 411
B47 | 301
B48 | 381

Binder | RAMPO Score [rampo units]
B49 | 299
B50 | 254
B51 | 358
B52 | 379
B53 | 401
B54 | 411
B55 | 456
B56 | 271
B57 | 365
B58 | 298
B59 | 240
B60 | 306
B61 | 426
B62 | 283
B63 | 403
B64 | 495
B65 | 293
B66 | 415
B67 | 285
B68 | 318
B69 | 341
B70 | 322
B71 | 234
